Reference: the DeepSol protein solubility set

Assay: soluble on expression in E. coli; label from the status in PepcDB or PDB records

| Sequence | soluble on expression in E. coli |
| --- | --- |
| MALAGAEVVVKMTPKSVAHVFKKEMSSLHTSLLHLKPSPFQATYLGLEMTIDHLQVVDFKMPKLSYETSASQSHMTFKLLGGSARLLGQYSAVYKTKREGQFEMIFEHFHMSVPVKRTALTKFTVASDECTLEVDESMITMSPVLPEQISAKIKSDLLDQLKEAACSNATQFFSKLNSHLIHFAEATDISQGGHPSHIDVELHFQNPTSEDDTAIHVDVTESVVNAELSKLYSSANTRFIWNDVPEIKELLKSCKTTECRFIEDGDIVSSFFDRPSIRIQSDNTVSLRLPLSTSLTTTNGKELFRIQTEVELNLEDIVLEHPENGEVFWSAKFHIKNIRILQTSSSRNFQKFATRMESWIEEHKLFMENLLNTYIQGSLPVHLRSPLAWTHRVHARPIFSTSSLSFHVHPHFSPSLRVLV | not soluble |
| MGSDKIHHHHHHMLLSRVAESLYWINRYLERAENISRFVEVSESMALDCPPGSAEPWLPLVDASGDRNKFDESYLNKTPSDVANFLIKDRENPNSILSCICMARENARQIRDVITSEMWEQINSLYWSIQEGEVIWHQPAQEQLFEIRRGCQLFYGVTDATFSHDIAWNFSKLGRLIERADKTSRILDVKYFLLLPNLKELGGALDELQWISLLRSAGAYQMFRISEQGSITPNAIASFLLLDPIFPRSVRFCLEGINESLSKIQNSPVSKKPNDLECLIGLLLSKWSFVRIDHLIKDGLHEAIDSLQIDLNKLHDLIHGIYFRNDKKFDFESLQG | not soluble |
| MDSWYPSKELIEACLKKGFHVIAMLKTNRILYPKGIAVQAKQFARYLEPRDTRLVTVGNERYRVYRYEGALNGLDDAVVLLTWKADQPMTPEHLHGVLSTDRELSDEDILRYYAQRWSIECFFRQVKDQLKLDGYRVRHIRAVKRYWVTVLLACVYSIAESQQDISAGLNLLRTRKGHSLIEFIYDAAKQDIPIDVVKKQLHVA | not soluble |
| MIGGSGRFLVNLESLNGVESIGNLTKHRTAPVVLKTSTGYLVRYVPVISGEALAHAYQASLVDIAKKEGLPVGNLSSQYEFIKFSTDEALKIEGIKEPKDYNDARRFEVEVMLKDVIADVGGFMYAGSAPVRRTSRIKLGYMIPALRGDEIPAQLEAQFHVRFSNKPVKGSQAIFNVEVSSALYTFSFELDEDLIAVPSTVGEKVKGEEELERQKARRVDSAIKALYSLLAGNFGGKRSRFLPSMKLMSLVVVKTDFPFIPEPGHDDSYIKTTVMRLEKAKSVLNGNVAKVYVINNEGIEVGEGATVLSSVEDLVAKLKEK | not soluble |
| MCPKCGTECDKLFDSVCRDCFFETFKLIDLPLVLHVKICSSCGAYFHRSRWENIGNLEEVVLKAVENALFIHDEAGDVELYLEPKEITPYIYMVRAEVDAIVRGEPVHAEAATEVRVQRIACDMCSRESGGYFEAIIQIRAAGRFPTEEEKRRCSAIAREAMESMKKKGDRLAFISDYQEQKEGIDLYMGSMNASRQVCRMIISELGGSFAESPTLVGMKDGKNLYRITFAMRLPLEHHHHHH | not soluble |
| PSSAVGSGSEGFIVRLPAALLFKEGGIEVENSDGFLFVKRMAEIVNRLPKDVHVEVRGHTDTLPLPAQAPQDKLELTAKRALSVSKLLVKEGIDPKRITTVGRGDQDPLTHARTPEAQESNRRVDIYLYPKE | soluble |
| AVPETRPNHTIYINNLNEKIKKDELKKSLYAIFSQFGQILDILVSRSLKMRGQAFVIFKEVSSATNALRSMQGFPFYDKPMRIQYAKTDSDIIAKMKGTFVERDRKREKRKPKSQE | soluble |
| MNSVITQKVSSGVTLYADTKTGGFMNRTILVPIDISDSELTQRVISHVEAEAKIDDAEVHFLTVIPSLPYYASLGLAYSAELPAMDDLKAEAKSQLEEIIKKFKLPTDRVHVHVEEGSPKDRILELAKKIPAHMIIIASHRPDITTYLLGSNAAAVVRHAECSVLVVR | not soluble |
| MNEDNSQNSEGPSRKSFFERLSQLFQGEPKDRQELVDVIRDSEVNDLIDHDTRDMLEGVMEIAEMRVRDIMIPRSQMVTIDRTHNLDALVAIMTDAQHSRYPVISEDKDHVEGILLAKDLLKYLGSNCAPFNIQEVIRPAVVVPESKRVDRLLKEFREERYHMAIVVDEFGGVSGLVTIEDILEEIVGDIEDEFDDEEQKDIRQLSKHTFSVKALTTIEDFNHTFGTKFSDEEVDTVGGLVMTAFGHLPARGEVVDIAGYNFKVTAADSRRVVALQVTVPDLEALSHVAEE | not soluble |
| MAHHHHHHMTAPITGPMLLGAASVDVLRSMLTLDPFQCLVAQRLCEELSCQRFPKVTLLIFKSMPDPRLLQLRSSVGEEVTVTVSRLNDLRCKFTLGDKANYEHLYNMRTPAKPRTVCTFDIVLPTSRLTGLSRCIDHLIAAAERMVMPRITVEALCCTEQDERRKIVREEKDHWDFLFHGLRVGSFITVLRRLPSITAMHAPPIPHDYTFSAALSNPGFVLPSHYCGRLATVPTGAKGVSTPFIAIAEPAIPTGAKVSIRCQLIRGNQGQILGGGYYFGVCTPSFHWKHKDLNVHTGEVWALHDMDDSPWRLRHLRPDATFPVAAEPRCIIVSGDIIRLYIDRTARVMHAFRTPVNGDEIPLGLHL | not soluble |
| MPLRQKRLYWPLFFRDDLIMEKNKLQLEYVFDRVSTRSLWRYLSTPDGLSEWFAYDVRLEDNGDFYFQWDKNSGEKASVLEQREGERIRFQWHREQDQNACFEFVIHHSELTGGKSLEVIDYIAPEEVADMEHFWNNLISRLRLSLGAPE | not soluble |
| SLFPHISPCEVRVLMLLYSSKKKIFMGLIPYDQSGFVSAIRQVITTRKQAVGPGGVNSGPVQIVNNKFLAWSGVMEWQEPRPEPNSRSKRWLPSHVYVNQGEILRTEQWPRKLYMQLIPQQLLTTLVPLFRNSRLVQFHFTKDLETLKSLCRIMDNGFAGCVHFSYKASCEIRVLMLLYSSEKKIFIGLIPHDQGNFVNGIRRVIANQQQVLQRNLEQEQQQRGMGG | soluble |
| MHHHHHHSSGVDLGTENLYFQSMPRARPGGNRVTVVLGAQWGDEGKGKVVDLLAQDADIVCRCQGGNNAGHTVVVDSVEYDFHLLPSGIINPNVTAFIGNGVVIHLPGLFEEAEKNVQKGKGLEGWEKRLIISDRAHIVFDFHQAADGIQEQQRQEQAGKNLGTTKKGIGPVYSSKAARSGLRMCDLVSDFDGFSERFKVLANQYKSIYPTLEIDIEGELQKLKGYMEKIKPMVRDGVYFLYEALHGPPKKILVEGANAALLDIDFGTYPFVTSSNCTVGGVCTGLGMPPQNVGEVYGVVKAYTTRVGIGAFPTEQDNEIGELLQTRGREFGVTTGRKRRCGWLDLVLLKYAHMINGFTALALTKLDILDMFTEIKVGVAYKLDGEIIPHIPANQEVLNKVEVQYKTLPGWNTDISNARAFKELPVNAQNYVRFIEDELQIPVKWIGVGKSRESMIQLF | soluble |
| MAHHHHHHMYSTTNDKSENEDLNDVIEININNIANKLANILYITNVGMKENCELKNNLHFSKFLNDMRSYCVNLIQSINNLNSNFYNLTCLPVHSIPRNPYTNILDINVITNNISVDDNADKIKEKQTLLQSFHNKYDKNKTTFHQSIKHIETFNDQLFSALNNLDHIKMSIKYQDQESSTYGNVVSERLKNKQKDHEHLELYIARVHYGLF | not soluble |
| MGSDKIHHHHHHMTKVKLNFNKPSNVFNRNIFEILTNYDNFTEVHYGGGSSGKSHGVIQKVVLKALQDWKYPRRILWLRKVQSTIKDSLFEDVKDCLINFGIWDMCLWNKTDNKVELPNGAVFLFKGLDNPEKIKSIKGISDIVMEEASEFTLNDYTQLTLRLRERKHVNKQIFLMFNPVSKLNWVYKYFFEHGEPMENVMIRQSSYRDNKFLDEMTRQNLELLANRNPAYYKIYALGEFATLDKMVFPKYEKRLINKDELRHLPSYFGLDFGYVNDPSAFIHSKIDVKKKKLYIIEEYVKQGMLNDEIANVIKQLGYAKEEITADSAEQKSIAELRNLGLKRILPTKKGKGSVVQGLQFLMQFEIIVDERCFKTIEEFDNYTWQKDKDTGEYTNEPVDTYNHCIDSLRYSVERFYRPVRKRTNVSSKVDTIKSLGL | not soluble |
| MNVFQMRDKLKARLKHLDVEFKFDREEETLRIVRIDNHKGVTIKLNAIVAKYEEQKEKIIDEICYYVEEAIAQMGDEVINNVEDIQIMPVIRATSFDKETKEGHAFVLTEHTAETNIYYALDLGKSYRLIDENMLQTLNLTAQQVKEMSLFNVRKLECRYSTDEVKGNIFYFINTNDGYDASRILNTSFLNHIQHQCEGEMLVGVPHQDVLILADIRNKTGYDVMAHLTMEFFTKGLVPITSLSFGYDNGHLEPIFILGKNNKQK | not soluble |
